The results in this text go back to publication PMC8616854.

As a reminder, the stoichiometry N is a count of units in the complex or per binding partner.

Experiment [1] has as its target Histidine zipper coiled coil protein from Meiothermus silvanus (Meio) (Meiothermus silvanus). In words: crystal structure; crystal structures of the histidine zipper proteins (1.35 to 1.93 Å); antiparallel homo-dimers.
Experiment [2] concerns the target Histidine zipper coiled coil protein from Methylobacter tundripaludum (Tuna) (Methylobacter tundripaludum). The experiment is described as above.
For experiment [3], the target named is CdiA‐CT^BWH57 toxin (nuclease) domain (Serratia marcescens BWH57). In words: crystal structure; CdiA-CT•CdiI complex, 1.59 Å; the N-terminal domain of CdiA-CT was cleaved off by in situ proteolysis before crystallisation.
Experiment [4] has as its target Histidine zipper coiled coil protein from Nitrosococcus oceani (Nitro) (Nitrosococcus oceani). In words: crystal structure; crystal structures of the histidine zipper proteins (1.35 to 1.93 Å); antiparallel homo-dimers.

For “Histidine zipper coiled coil protein from Meiothermus silvanus (Meio) (natural protein)”, the stoichiometry N in experiment [1] was 2. Substance “Histidine zipper coiled coil protein from Methylobacter tundripaludum (Tuna) (natural protein)” had a stoichiometry N in experiment [2] of 2. As to “CdiI^BWH57 immunity protein (natural protein)”, in experiment [3], the stoichiometry N stood at 1. Regarding “Histidine zipper coiled coil protein from Nitrosococcus oceani (Nitro) (natural protein)”, the stoichiometry N in experiment [4] was found to be 2.
